{
  "source": "patent US10947272B2",
  "about": "“BACE1 inhibitor peptides” (HOFFMANN-LA ROCHE INC., priority 2015, dated 2021)",
  "note": "Where “and” joins values, the source holds several entries; their conditions need not be identical. Equal values may be shown once. Numbered stars: 1 amine (or outer) side, 2 acyl side, 3 side chain; on linkers, the order of the positions; unused ones are H or OH. Square brackets hold non-standard residues; d marks the D form. Primed or numbered codes have the meaning given here. Ends that are not written are not given here. * marks the point of attachment. PEG(4) = non-peptide PEG linker joining two peptide parts; MetSta(3S,4S) = CSCC[C@H](N[*:1])[C@@H](O)CC(=O)[*:2]; Biotin = O=C1N[C@H]2[C@H](CS[C@H]2CCCCC(=O)*)N1; Sta = CC(C)C[C@H](N)[C@@H](O)CC(=O)O; PEG4 = NCCOCCOCCOCCOCCC(=O)O; PEG3 = NCCOCCOCCOCCC(=O)O; PEG8′ = not defined here; AEEA = NCCOCCOCC(=O)O",
  "data": [
    {"target": "BACE1 (Asp2, β-secretase, Memapsin-2) in HEK293 cells stably expressing human APP695 (UniProt P56817 46-501, limits assumed)", "sequence (P56817 46-501 limits assumed)": "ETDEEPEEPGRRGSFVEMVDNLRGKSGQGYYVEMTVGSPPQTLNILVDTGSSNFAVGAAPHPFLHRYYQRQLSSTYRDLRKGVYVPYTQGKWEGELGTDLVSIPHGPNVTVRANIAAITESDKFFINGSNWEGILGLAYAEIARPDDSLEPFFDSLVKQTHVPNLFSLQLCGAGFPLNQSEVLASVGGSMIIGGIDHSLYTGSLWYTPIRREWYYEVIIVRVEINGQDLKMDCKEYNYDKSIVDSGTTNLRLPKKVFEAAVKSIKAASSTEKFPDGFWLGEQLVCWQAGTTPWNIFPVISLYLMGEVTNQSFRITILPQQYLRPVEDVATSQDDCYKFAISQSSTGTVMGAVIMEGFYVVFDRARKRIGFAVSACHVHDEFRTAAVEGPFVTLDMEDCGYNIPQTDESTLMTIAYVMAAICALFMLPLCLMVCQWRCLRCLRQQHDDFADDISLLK", "test": "cell-based or functional assay", "values": [
      {"binder": "YPYFIP[dK][PEG(4)]EVN[MetSta(3S,4S)]VAE[dP]-NH2 (numbers in words are those of the source; also: TFA salt (2 TFA))", "note": "[Tyr-Pro-Tyr-Phe-Ile-Pro-DLys-PEG(4)-Glu-Val-Asn-MetSta-Val-Ala-Glu-DPro-NH2 × 2TFA]", "IC 50, cellular Aβ-lowering assay (Aβ40 in supernatant of HEK293 cells expressing human APP695)": "1010 nM"},
      {"binder": "Ac-[dY]PYFIPLG[dK]GEVN[Sta]VAE[dP]-NH2 (also: TFA salt)", "note": "[Ac-DTyr-Pro-Tyr-Phe-Ile-Pro-Leu-Gly-DLys-Gly-Glu-Val-Asn-Sta-Val-Ala-Glu-DPro-NH2 × TFA]", "IC 50, cellular Aβ-lowering assay (Aβ40 in supernatant of HEK293 cells expressing human APP695)": "110 nM"},
      {"binder": "YPYFIPLGGGEVN[Sta]VAE[dP]-NH2 (also: TFA salt)", "note": "[Tyr-Pro-Tyr-Phe-Ile-Pro-Leu-Gly-Gly-Gly-Glu-Val-Asn-Sta-Val-Ala-Glu-DPro-NH2 × TFA]", "IC 50, cellular Aβ-lowering assay (Aβ40 in supernatant of HEK293 cells expressing human APP695)": "420 nM"},
      {"binder": "GARFIPAG[dK]GEVN[Sta]VAE[dP]-NH2 (also: TFA salt (3 TFA))", "note": "[Gly-Ala-Arg-Phe-Ile-Pro-Ala-Gly-DLys-Gly-Glu-Val-Asn-Sta-Val-Ala-Glu-DPro-NH2 × 3TFA]", "IC 50, cellular Aβ-lowering assay (Aβ40 in supernatant of HEK293 cells expressing human APP695)": "420 nM"},
      {"binder": "H-YPYF[dK]PL[PEG4]EVN[Sta]VAE[dP]-NH2 (numbers in words are those of the source; also: TFA salt (2 TFA))", "note": "[H-Tyr-Pro-Tyr-Phe-DLys-Pro-Leu-PEG(4)-Glu-Val-Asn-Sta-Val-Ala-Glu-DPro-NH2 × 2TFA]", "IC 50, cellular Aβ-lowering assay (Aβ40 in supernatant of HEK293 cells expressing human APP695)": "> 40000 nM"},
      {"binder": "YPYFIPLG[dK]GEVN[Sta]VAE[dP]-NH2 (also: 2TFA salt)", "note": "[Tyr-Pro-Tyr-Phe-Ile-Pro-Leu-Gly-DLys-Gly-Glu-Val-Asn-Sta-Val-Ala-Glu-DPro-NH2 × 2TFA]", "IC 50, cellular Aβ-lowering assay (Aβ40 in supernatant of HEK293 cells expressing human APP695)": "94 nM"},
      {"binder": "YPYFKPAG[dK]GEVN[Sta]VAE[dP]-NH2 (also: 3TFA salt)", "note": "[Tyr-Pro-Tyr-Phe-Lys-Pro-Ala-Gly-DLys-Gly-Glu-Val-Asn-Sta-Val-Ala-Glu-DPro-NH2 × 3TFA]", "IC 50, cellular Aβ-lowering assay (Aβ40 in supernatant of HEK293 cells expressing human APP695)": "71 nM and 46 nM"},
      {"binder": "YPYFIP[dK][PEG(4)]EVNLAAE[dP]-NH2 (numbers in words are those of the source; also: Leu11-Ala12 as Leu*Ala hydroxyethylene dipeptide isostere, 2TFA salt)", "note": "[Tyr-Pro-Tyr-Phe-Ile-Pro-DLys-PEG(4)-Glu-Val-Asn-Leu*Ala-Ala-Glu-DPro-NH2 × 2TFA]", "IC 50, cellular Aβ-lowering assay (Aβ40 in supernatant of HEK293 cells expressing human APP695)": "15 nM"},
      {"binder": "{Biotin-AEEA}-C[PEG8′]YPYFIP[dK]G[dK]GEVN[Sta]VAE[dP]-NH2 (also: TFA salt)", "note": "[Biotin-PEG2-Cys-PEG8-Tyr-Pro-Tyr-Phe-Ile-Pro-DLys-Gly-DLys-Gly-Glu-Val-Asn-Sta-Val-Ala-Glu-DPro-NH2]", "IC 50, cellular Aβ-lowering assay (Aβ40 in supernatant of HEK293 cells expressing human APP695)": "18 nM"},
      {"binder": "YPYF[dK]PLG[dK]GEVN[Sta]VAE[dP]-NH2 (also: TFA salt (3 TFA))", "note": "[Tyr-Pro-Tyr-Phe-DLys-Pro-Leu-Gly-DLys-Gly-Glu-Val-Asn-Sta-Val-Ala-Glu-DPro-NH2 × 3TFA]", "IC 50, cellular Aβ-lowering assay (Aβ40 in supernatant of HEK293 cells expressing human APP695)": "> 40000 nM"},
      {"binder": "H-YPYFIP[dK][PEG4]EVN[Sta]VAE[dP]-NH2 (numbers in words are those of the source; also: TFA salt (2 TFA))", "note": "[H-Tyr-Pro-Tyr-Phe-Ile-Pro-DLys-PEG(4)-Glu-Val-Asn-Sta-Val-Ala-Glu-DPro-NH2 × 2TFA]", "IC 50, cellular Aβ-lowering assay (Aβ40 in supernatant of HEK293 cells expressing human APP695)": "45 nM"},
      {"binder": "{Biotin-AEEA}-C[PEG3]YPYFIP[dK]G[dK]GEVN[Sta]VAE[dP]-NH2 (also: TFA salt)", "note": "[Biotin-PEG2-Cys-PEG3-Tyr-Pro-Tyr-Phe-Ile-Pro-DLys-Gly-DLys-Gly-Glu-Val-Asn-Sta-Val-Ala-Glu-DPro-NH2]", "IC 50, cellular Aβ-lowering assay (Aβ40 in supernatant of HEK293 cells expressing human APP695)": "26 nM"},
      {"binder": "YPKFIPLG[dK]GEVN[MetSta(3S,4S)]VAEP-NH2 (also: TFA salt (3 TFA))", "note": "[Tyr-Pro-Lys-Phe-Ile-Pro-Leu-Gly-DLys-Gly-Glu-Val-Asn-MetSta-Val-Ala-Glu-Pro-NH2 × 3TFA]", "IC 50, cellular Aβ-lowering assay (Aβ40 in supernatant of HEK293 cells expressing human APP695)": "760 nM"},
      {"binder": "YPYFIPL[PEG4]EVN[Sta]VAE[dP]-NH2 (also: TFA salt)", "note": "[Tyr-Pro-Tyr-Phe-Ile-Pro-Leu-PEG(4)-Glu-Val-Asn-Sta-Val-Ala-Glu-DPro-NH2 × TFA]", "IC 50, cellular Aβ-lowering assay (Aβ40 in supernatant of HEK293 cells expressing human APP695)": "2.7 nM"},
      {"binder": "YPYFI[dK]LG[dK]GEVN[Sta]VAE[dP]-NH2 (also: TFA salt (3 TFA))", "note": "[Tyr-Pro-Tyr-Phe-Ile-DLys-Leu-Gly-DLys-Gly-Glu-Val-Asn-Sta-Val-Ala-Glu-DPro-NH2 × 3TFA]", "IC 50, cellular Aβ-lowering assay (Aβ40 in supernatant of HEK293 cells expressing human APP695)": "> 40000 nM"},
      {"binder": "H-[dY]PYFIP[dK]G[dK]GEVN[Sta]VAE[dP]-NH2 (also: TFA salt (3 TFA))", "note": "[H-DTyr-Pro-Tyr-Phe-Ile-Pro-DLys-Gly-DLys-Gly-Glu-Val-Asn-Sta-Val-Ala-Glu-DPro-NH2 × 3TFA]", "IC 50, cellular Aβ-lowering assay (Aβ40 in supernatant of HEK293 cells expressing human APP695)": "63 nM"},
      {"binder": "YPYFIP[dK]G[dK]GEVN[MetSta(3S,4S)]VAE[dF]-NH2 (also: TFA salt (3 TFA))", "note": "[Tyr-Pro-Tyr-Phe-Ile-Pro-DLys-Gly-DLys-Gly-Glu-Val-Asn-MetSta-Val-Ala-Glu-DPhe-NH2 × 3TFA]", "IC 50, cellular Aβ-lowering assay (Aβ40 in supernatant of HEK293 cells expressing human APP695)": "190 nM"},
      {"binder": "H-YP[dK]FIPLG[dK]GEVN[Sta]VAE[dP]-NH2 (also: TFA salt)", "note": "[H-Tyr-Pro-DLys-Phe-Ile-Pro-Leu-Gly-DLys-Gly-Glu-Val-Asn-Sta-Val-Ala-Glu-DPro-NH2]", "IC 50, cellular Aβ-lowering assay (Aβ40 in supernatant of HEK293 cells expressing human APP695)": "29300 nM"},
      {"binder": "H-[dY]PYFIPLG[dK]GEVN[Sta]VAE[dP]-NH2 (also: TFA salt (2 TFA))", "note": "[H-DTyr-Pro-Tyr-Phe-Ile-Pro-Leu-Gly-DLys-Gly-Glu-Val-Asn-Sta-Val-Ala-Glu-DPro-NH2 × 2TFA]", "IC 50, cellular Aβ-lowering assay (Aβ40 in supernatant of HEK293 cells expressing human APP695)": "810 nM"},
      {"binder": "YPYFIP[dK]G[dK]GEVN[MetSta(3S,4S)]VAEP-NH2 (also: TFA salt (3 TFA))", "note": "[Tyr-Pro-Tyr-Phe-Ile-Pro-DLys-Gly-DLys-Gly-Glu-Val-Asn-MetSta-Val-Ala-Glu-Pro-NH2 × 3TFA]", "IC 50, cellular Aβ-lowering assay (Aβ40 in supernatant of HEK293 cells expressing human APP695)": "15 nM"},
      {"binder": "[dK]PYFIPLG[dK]GEVN[Sta]VAE[dP]-NH2 (also: TFA salt (3 TFA))", "note": "[DLys-Pro-Tyr-Phe-Ile-Pro-Leu-Gly-DLys-Gly-Glu-Val-Asn-Sta-Val-Ala-Glu-DPro-NH2 × 3TFA]", "IC 50, cellular Aβ-lowering assay (Aβ40 in supernatant of HEK293 cells expressing human APP695)": "2930 nM"},
      {"binder": "YPKFISAG[dK]GEVN[Sta]VAE[dP]-NH2 (also: 3TFA salt)", "note": "[YPKFISA-GkG-EVN-Sta-VAEp-NH2 × 3TFA]", "IC 50, cellular Aβ-lowering assay (Aβ40 in supernatant of HEK293 cells expressing human APP695)": "750 nM"},
      {"binder": "YPYFIPLG[dK]GEVN[MetSta(3S,4S)]VAEP-NH2 (also: 2TFA salt)", "note": "[Tyr-Pro-Tyr-Phe-Ile-Pro-Leu-Gly-DLys-Gly-Glu-Val-Asn-MetSta-Val-Ala-Glu-Pro-NH2 × 2TFA]", "IC 50, cellular Aβ-lowering assay (Aβ40 in supernatant of HEK293 cells expressing human APP695)": "470 nM"},
      {"binder": "H-Y[dK]YFIPLG[dK]GEVN[Sta]VAE[dP]-NH2 (also: TFA salt)", "note": "[H-Tyr-DLys-Tyr-Phe-Ile-Pro-Leu-Gly-DLys-Gly-Glu-Val-Asn-Sta-Val-Ala-Glu-DPro-NH2]", "IC 50, cellular Aβ-lowering assay (Aβ40 in supernatant of HEK293 cells expressing human APP695)": "> 40000 nM"},
      {"binder": "YPYF[dK]LG[dK]GEVNLAAE[dP]-NH2 (also: Leu13-Ala14 hydroxyethylene dipeptide isostere (Leu*Ala) in place of the amide bond, 3TFA salt)", "note": "[Tyr-Pro-Tyr-Phe-DLys-Leu-Gly-DLys-Gly-Glu-Val-Asn-Leu*Ala-Ala-Glu-DPro-NH2 × 3TFA]", "IC 50, cellular Aβ-lowering assay (Aβ40 in supernatant of HEK293 cells expressing human APP695)": "34 nM"},
      {"binder": "H-YPYF[dK]L[PEG4]EVN[Sta]VAE[dP]-NH2 (also: TFA salt)", "note": "[H-Tyr-Pro-Tyr-Phe-DLys-Leu-PEG(4)-Glu-Val-Asn-Sta-Val-Ala-Glu-DPro-NH2 × 3TFA]", "IC 50, cellular Aβ-lowering assay (Aβ40 in supernatant of HEK293 cells expressing human APP695)": "> 40000 nM"},
      {"binder": "TPKPAQGG[dK]GEVN[Sta]VAE[dP]-NH2 (also: TFA salt (3 TFA))", "note": "[TPKPAQG-GkG-EVN-Sta-VAEp-NH2 × 3TFA]", "IC 50, cellular Aβ-lowering assay (Aβ40 in supernatant of HEK293 cells expressing human APP695)": "> 40000 nM"},
      {"binder": "H-GGGYPYFIP[dK]G[dK]GEVN[Sta]VAE[dP]-NH2 (also: TFA salt)", "note": "[H-Gly-Gly-Gly-Tyr-Pro-Tyr-Phe-Ile-Pro-DLys-Gly-DLys-Gly-Glu-Val-Asn-Sta-Val-Ala-Glu-DPro-NH2 × 3TFA]", "IC 50, cellular Aβ-lowering assay (Aβ40 in supernatant of HEK293 cells expressing human APP695)": "6.4 nM"},
      {"binder": "H-YPKFIPL[PEG4]EVN[Sta]VAE[dP]-NH2 (numbers in words are those of the source; also: 3TFA salt)", "note": "[1 H-Tyr-Pro-Lys-Phe-Ile-Pro-Leu-PEG(4)-Glu-Val-Asn-Sta-Val-Ala-Glu-DPro-NH2 × 3TFA]", "IC 50, cellular Aβ-lowering assay (Aβ40 in supernatant of HEK293 cells expressing human APP695)": "52 nM"}
    ]}
  ]
}
